Assay: yeast display, Sf9 membrane polyspecificity reagent, FACS + sequencing; frameworks hold sequencing errors
Outline: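 Genes from sorted yeast were amplified by colony PCR, read by MiSeq 2 × 250 sequencing and filtered on CDR length. These cells carried a synthetic nanobody library in Saccharomyces cerevisiae BJ5465 and were sorted by FACS into low and high (top ~1%) gates on anti-HA and streptavidin fluorescence. Polyreactivity is labelled according to the gate of origin.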

Sequence	polyreactivity (PSR sort gate)
QVQLVESGGGLDQAGGSLRLSCVASGSIFRGNAMGWYRQAPGKERELVASISKGGGSTYYADSVKGRFIISRDNAKNTVYLQMNSLKPEDTAVYYCNAQFYNSGWSFKYYYWGQGTQVTVSS	low polyreactivity
QVQLVESGGGLDQAGGSLRLSSAASGFTFRRNAMGWYRQAPGTERELVASITQRGGSTYYADSVKGRFTISRDNAKNTVYLQMNSLKPEATAVYYCAAGPTSRRWYDYWGQGTEVTVSS	high polyreactivity
QVQLVESGGGLDQAGGSLRLSSAASGITFYGYDMGWYRQAPGKARELVAAITSDGITNYADSVKGRFTFSRDNAKNTVYLHMNSLKPEDTAVYYCAADLSFYRRYEWYYYWGQGTQVTVSS	low polyreactivity
QVQLVESGGGLDQAGGSLRLSWAASGSIFTIYAMGWYRQAPGKERELVAAISRRGGSTYYADSVKGRFTISRDNSKNTVYLQMNSLKPEDTAVYYCNADVAPGIFYGYDCWGQGTQVTVSS	low polyreactivity
QVQLVESGGGLDQAGGSLRLSWAASGSTFTINVMGWYRQAPGKERELVAAINGGGRTNYADSVKGRFTISRDNAKNTVYLQMNSLKPEDTAVYYCAADGLSNVRQMDFWGQGTQVTVSS	low polyreactivity
QVQLVESGGGLDQAGGSLRLTCAASGFTFQVYAMGWYRQAPGKERELVADITSGTSTNYADSVKGRFTSSRDNAKNTVYLQMNSLKPEDTAVYYCANVYTYKSFDYWGQGTQVTVSS	low polyreactivity
QVQLVESGGGLDQAGGSLRLTCAASGRIISGNAMGWYRQAPGKERELVAAISWSGGSTYYADSVKWRFTISRDNEKNTVYLHMNSLQPEDSAVYYCNAPGYRRYGSRMGYCGQGTQVTVSS	high polyreactivity
QVQLVESGGGLDQAGGSLRLTCAASGSIFEIYDRGWYRQAPGKEMELVASIRTSGGSTFYADSVKGRFTISRDNAKNTVYLQMNSLKPEDTAVYYCAAGDVPRRIYLVYVGYLLDYWGQGTQVTVSS	low polyreactivity
QVQLVESGGGLDQAGGTLRLSSAASGSTFYTNAMGWYRQAPGKERELVAAISGSGGSTYYADSVKGRFTISRDNAKNTVYLQMNSLKPEDNAVYYCAARSRYYDTRFDYWGQGTQVTVSS	low polyreactivity
QVQLVESGGGLDQAGRSLRLSCAASGSTFPYTAMGWYRQAPGKYRELVAGITDGDGSTSYADSVKGRFTISRDNAKNTVYLQMNCMKPELPAVYYCAARYTYYADEDDYWGQGSQVTVSS	low polyreactivity
QVQLVESGGGLDQARGSLRLSCAASGITFHPNAMGWYRQAPGKERELVAAISGRRSRTYYADSVKGRFIISRDNAKNTVYLLLNSLKPEDTAVYYCAKDHPSGRQYDYWGQGTQVTVSS	high polyreactivity
QVQLVESGGGLDQARGSLRLSCAASGRTFYSYAMGWYRQAPGKERELVAAISKRGTSTYYADSVKGRFTISRDNAKNTVYLQMNSLKPEDTAVYYCDAGAYIWDIYSYRWYDYWGQGTQVTVSS	high polyreactivity
QVQLVESGGGLDQARGSLRLSCAASGSNFRYYAIGGYRPAHGKERELVASITGSGGRTYYADSVKGRFTISLDNAKNTVYLQMNSLKPEDTAVYYCAVPYHQGNMDYWGQGTQVTVSS	high polyreactivity
QVQLVESGGGLDQARGSLRLSCAASGSTFAFYAMGWYRQAPGKERELVAAITGDGDSTYYADSVKGRFTISRDNAKNTVYLQMNSLKPEDTAVYYCAKSSGGGPSSFDYWGQGTQVTVSS	low polyreactivity
QVQLVESGGGLDQARGSLRLSCAASGYTFYRNAMGWYRQAPGKVRELVAAIRDDGSTYYADSVKGRFTISRDNAKNTVYLHMNSLKPADTAVYYCNRDYPYIWHKGARYWHDNDYWGQGTQVTVSS	low polyreactivity
QVQLVESGGGLDQEGGSLRLSCAASGNIFSSYLMGWYRQAPGKEREVVAAISSRGGSTYYADSVKGRFTISRDNAKNSVYLQMNSLKPEDTAVYYCAARTGRYYRRYDYWGQGTQVTLSS	high polyreactivity
QVQLVESGGGLFHAGGRLRLSCAASGYTFRYYAMGWSRQAPGKERELVAGIDSGGGSTYYAASVKGRFTISRDNAKYTVYLQMNSLKPEDTAVYYCAVDTYSWYGEYYYWGQGTQVTVSS	high polyreactivity
QVQLVESGGGLFKAGGSLRLSCAASGFIFYFYNMAWYRQAPGKERELVAAISKSGTSTYYAASVKGRFTISRDNAKNTVYLQMNSLKPEDPAVYYCNKVRRANFDYWGQGTQVTVSS	high polyreactivity
QVQLVESGGGLFQAGASLRLSCAASGFIFTDYAIGWDTQAPGKERELVAAISSGGRTYYADSVKGRFTISRDNAKNTVYLQMNSLKPEDTAVYYCARGGRAEGWGQGTQVTVSS	high polyreactivity
QVQLVESGGGLFQAGGRLLLSCAASGRIFTYNTRGWYRQAPGKEREFVAAISSSSVSTYYADSVKGRITISRDNAKYTVYLQMNCLKPEDTAVYYCAAKRVGYHIGYVYPYGYWGQGTQVTVSS	high polyreactivity
QVQLVESGGGLFQAGGSLRISCAASGITFYGNAMGWYRQAPGKERELDATISSGGGTNYADSVKGRFTISRDNAKNTVYLQMNSLKPEDTAVYYCATDLSTVDYNYWGQGTQVTVSS	low polyreactivity
QVQLVESGGGLFQAGGSLRISCAATGSTFGSYAMGWYRQAPGKERELVAAISVGGGSTYYADSVKGRFTISRDNAKNTVYLKMNSLKPEDTAVFYCAATAPRWHHFYHWGQGTQVTVSS	high polyreactivity

Sequence	polyreactivity (PSR sort gate)
QVQLVESGGGLFQAGGSLRLICAASGRIFDVNAMGWYRQAPRKEREMVAAISWSGGITYYADSVKGRFTISRDNAKNTVYLQMNSLKPEDTAVYYCAADKYQGYTFYQGYPGGGGYWGQGTQVTVSS	low polyreactivity
QVQLVESGGGLFQAGGSLRLSCAASASIIPHNAMGWYRQAPGKERELVASITSRGGITYYADSVKGRFTISRDNAKNTVYLQMNSLKPEDTAVYYCAKDHAYTSAPHQYASEYYYWGQGTQVTVSS	low polyreactivity
QVQLVESGGGLFQAGGSLRLSCAASGFIFARNAMSWYRQAPGKERELVAAISRNGGRTSYADSVKGRFTISRDNAKNTVYLQMNSMKAEDTAVYYCAKSQGYVSWTGAYSYDYWGQGTQVTVSS	high polyreactivity
QVQLVESGGGLFQAGGSLRLSCAASGFIFLLNAMGWYRQAPGKERELVAAINSDGSTNYADSVKGRFTISRDNAKNTFYLQMNSLKPEDTGVYYCAARSFTLRGYDYWGQGTQVTVSS	low polyreactivity
QVQLVESGGGLFQAGGSLRLSCAASGFNFDSNVMGWYRQAPGKERELVAAITGDDTTYYADSVKGRFTISRDNAKNTVYLQMNSLKPEDTAVYYCAADETESLEYTAYDMYYWGQGTQVTVSS	low polyreactivity
QVQLVESGGGLFQAGGSLRLSCAASGFSFYGNTMGWYRQAPGKERELFASITSGSSTHYADSVKGRFTISRDNAKNTVYLQMNSLKPDDTAVYYCNVEDIQFGKYDYWGQGTQVTVSS	low polyreactivity
QVQLVESGGGLFQAGGSLRLSCAASGFTFAFNAMGWYRQAPGKERELVAGITSGGRTNYADSVKGRFTISRDNGKNTVYLQMNSLKPEDTAVYYCAADRPYYKGYVPPYYKYRYDYWGQGTQVTVSS	high polyreactivity
QVQLVESGGGLFQAGGSLRLSCAASGFTFARYAMGRSRTAPAKERELVARISWSGGSTYYADSVKGRFTISRDNAKNTVYLLMYSLKTEDTEVYYCAADGWYYRYPRDDYWGQGTQETVSS	low polyreactivity
QVQLVESGGGLFQAGGSLRLSCAASGFTFGHNSMGWYRQAPGKERELVAAISYSGGSTYYADSVKGRFTSSRDNAKNTVYLQMNSLKPEDTAVYYCAKRSHTDSVPGVYNEGDFWGQGTQVTVSS	low polyreactivity
QVQLVESGGGLFQAGGSLRLSCAASGFTFHRNAMGWYRQAPGKERELVAAITLNGGSSTYYADSVKGRFTISRDNAKNTVYLQMNSLKAEDTAVYSCALDSYSYTFSKNSDPAEYEYWGQGTQVTVSS	low polyreactivity
QVQLVESGGGLFQAGGSLRLSCAASGFTFIPYTMGWYRQAPGKERELVASIISGGSTNYADSVKGRFTISRDNAKNTVYFQMKSLKPEDTAVYYCAAVYFYYCYGWYYYWGQGTQVTVSS	high polyreactivity
QVQLVESGGGLFQAGGSLRLSCAASGFTFNRNAMGWYRQAPGKERELVAAISWSGGSTYYADSVKGRFTISRDNAKNPVYLQMNSLKPEDTAVYYCAKGYRRVYGPFYYWGQGTQVTVSS	low polyreactivity
QVQLVESGGGLFQAGGSLRLSCAASGFTFPDYAMGSYRQAPGKERELVAAISSDGSTYDADSVKGRFTISRDIAKTTVYLQMNSLKPEDTAVYYCAAYVVWLYGYAYWGQGTQVTVSS	low polyreactivity
QVQLVESGGGLFQAGGSLRLSCAASGFTFWYYAMGWYRQAPGKERELVAAISASGGSTYYADSVKVRFTISRDNAKNTVYLQMNCLKPEDTAVYYCAARYPSKFYNTYDRDYWGQGTQVTVSS	high polyreactivity
QVQLVESGGGLFQAGGSLRLSCAASGFTFYRNAMGWYRQAPGQERELVAAITRGGSTTYADSVKGRFTISRDNAKNTVYLQMNSLKPEDTAVYYCAKGARADVPGYYKYYYWGQGTQVTVSS	high polyreactivity
QVQLVESGGGLFQAGGSLRLSCAASGGIFSLYAMGWYRQAPGTERELVAVISSTCSTHYADSVKGRFTISRDNAKKTVSLLMNSLKPEDTAVYYCNADARTSRKKFGYWGQGTQVTVSS	low polyreactivity
QVQLVESGGGLFQAGGSLRLSCAASGGTFDWYTMGWYRQAPGKERELVADITSGGSTYYADSVKGRFTISRDNAKNTVYLQMNSLKPEDTALYYCNKRDKVTYSYDYWGQGTQVTVSS	high polyreactivity
QVQLVESGGGLFQAGGSLRLSCAASGIIFSSNAMGWSRQAPGKERELVAAISSSGSRTYYAASVKGRFTISRDNAKNTVYFQMNSLKPEDTAVYYCAARTISSLNHHGYWGQGTQVTVSS	high polyreactivity
QVQLVESGGGLFQAGGSLRLSCAASGINFYKYSMGWYRQAHRKERELVAAITSGGGRTYYADSVKGRFTISRDNAKNTVYLQMNSLKPEDTAVYYCAATRPASYAAYDYWGQGTQVTVSS	high polyreactivity
QVQLVESGGGLFQAGGSLRLSCAASGLIFGRYAMGWYRPAPGKERELVAAISRSGGSTHYADSVKGRFTISRDNAKNTVYLQMNSLKPEDTAVYYCAAVWPFDRSRMDYWGQGTQVTVSS	high polyreactivity
QVQLVESGGGLFQAGGSLRLSCAASGLTFQRYDMGWYRQAPVKEIELVAAINYSGGRTYYADSVKGRFTISRDNAKNTVYLQMNSLKPEDTAVYYCAARVRNTYVYQSWDGMYYWGQGTQVTVSS	high polyreactivity

Reference: the nanobody polyreactivity screen of Harvey et al. (2022)
